B1: engineered (dimeric) caspase-9 (Δ139, residues 140-416) (domain or fragment, UniProt P55211 140-416, looked up)
chain: GALESLRGNADLAYILSMEPCGHCLIINNVNFCRESGLRTRTGSNIDCEKLRRRFSSLHFMVEVKGDLTAKKMVLALLELAQQDHGALDCCVVVILSHGCQASHLQFPGAVYGTDGCPVSVEKIVNIFNGTSCPSLGGKPKLFFIQACGGEQKDHGFEVASTSPEDESPGSNPEPDATPFQEGLRTFDQLDAISSLPTPSDIFVSYSTFPGFVSWRDPKSGSWYVETLDDIFEQWAHSEDLQSLLLRVANAVSVKGIYKQMPCIVSMLRKKLFFKTS
notes: caspase-9, residues 140-416; prodomain and flexible linker removed; five residues of strand beta6 replaced by those of caspase-3 (Cys264-Ile-Val-Ser-Met268); Predicted dimer mass printed as 62,746 Da; written as one chain; also called engineered caspase-9 (Δ139); Δ139 dimeric caspase-9; source: E. coli BL21(DE3), vector pET-21b, purified (Ni-NTA, anion exchange Source-15Q, gel filtration …)
B2: dimeric caspase-9 (residues 140-416, C287S) (domain or fragment, UniProt P55211 140-416, looked up)
chain: GALESLRGNADLAYILSMEPCGHCLIINNVNFCRESGLRTRTGSNIDCEKLRRRFSSLHFMVEVKGDLTAKKMVLALLELAQQDHGALDCCVVVILSHGCQASHLQFPGAVYGTDGCPVSVEKIVNIFNGTSCPSLGGKPKLFFIQASGGEQKDHGFEVASTSPEDESPGSNPEPDATPFQEGLRTFDQLDAISSLPTPSDIFVSYSTFPGFVSWRDPKSGSWYVETLDDIFEQWAHSEDLQSLLLRVANAVSVKGIYKQMPCIVSMLRKKLFFKTS
notes: caspase-9, residues 140-416; five residues of strand beta6 replaced by those of caspase-3; catalytic Cys287 mutated to Ser; Crystallised form; the model holds residues 140-288 and 335-416 (chains A, C) and 140-289 and 337-416 (chains B, D); also called dimeric caspase-9 (C287S); source: E. coli BL21(DE3), vector pET-21b, purified (Ni-NTA, anion exchange Source-15Q, gel filtration Superdex-200)

Experiments:
[1] = target: the molecule itself; assay: SEC; gel filtration of WT and engineered caspase-9 (Δ139, residues 140-416); unpublished data
[2] = target: the molecule itself; assay: crystal structure; hanging-drop vapor diffusion, 100 mM MES pH 6.0, 5% PEG 5000 monomethyl ether, 3% tacsimate; space group C2; two molecules of the dimer in the asymmetric unit; molecular replacement

Row | Protein | stoichiometry N [1] | binding result [2]
1 | B1 | 2 | –
2 | B2 | – | binds
